Reference: paper PMC4605646 (PLoS ONE, 2015)

Biological target: human α-synuclein (human, UniProt P37840 1-140)
Assay: cell-based or functional assay

B1: CsgE (natural protein)
chain: VEVEVPGLLTDHTVSSIGHDFYRAFSDKWESDYTGNLTINERPSARWGSWITITVNQDVIFQTFLFPLKRDFEKTVVFALIQTEEALNRRQINQALLSTGDLAHDEF
Question: How did the “lag phase of α-synuclein amyloid formation (ThT fluorescence, 70 μM α-synuclein, 37°C, agitation) at CsgE-to-α-synuclein molar ratios of 1-to-3, 1-to-10 and 1-to-100” value turn out when B1 was run?
Answer: 4 fold
